# Source: PMC11633101
# Biological target: bovine NECTIN1 with 6×his tag, purified from CHO cells (bovine)
# Test: SPR; Biacore 8K, CM5 chip, 25°C, single-cycle mode, PBS; NECTIN1 and CD46 captured on the chip, serial dilutions of BVDV E2 injected; regeneration with glycine pH 2.5
substance,measurement,value
"BVDV E2 protein with 6×his tag, purified from 293F cells (from UniProt P19711 693-1066) (natural protein)",Kd,3.47 pM
